Laboratory results as given in patent publication US20250262210A1 (TRUSTEES OF COLUMBIA UNIVERSITY IN THE CITY OF NEW YORK, published 2025).

Key:
Assay in all cases: IP/MS, LZTR1 wild type-FLAG, U87
PARP10 = molecular target: T1, PARP10 (human, UniProt Q53GL7 1-1025)
T1 sequence (looked up): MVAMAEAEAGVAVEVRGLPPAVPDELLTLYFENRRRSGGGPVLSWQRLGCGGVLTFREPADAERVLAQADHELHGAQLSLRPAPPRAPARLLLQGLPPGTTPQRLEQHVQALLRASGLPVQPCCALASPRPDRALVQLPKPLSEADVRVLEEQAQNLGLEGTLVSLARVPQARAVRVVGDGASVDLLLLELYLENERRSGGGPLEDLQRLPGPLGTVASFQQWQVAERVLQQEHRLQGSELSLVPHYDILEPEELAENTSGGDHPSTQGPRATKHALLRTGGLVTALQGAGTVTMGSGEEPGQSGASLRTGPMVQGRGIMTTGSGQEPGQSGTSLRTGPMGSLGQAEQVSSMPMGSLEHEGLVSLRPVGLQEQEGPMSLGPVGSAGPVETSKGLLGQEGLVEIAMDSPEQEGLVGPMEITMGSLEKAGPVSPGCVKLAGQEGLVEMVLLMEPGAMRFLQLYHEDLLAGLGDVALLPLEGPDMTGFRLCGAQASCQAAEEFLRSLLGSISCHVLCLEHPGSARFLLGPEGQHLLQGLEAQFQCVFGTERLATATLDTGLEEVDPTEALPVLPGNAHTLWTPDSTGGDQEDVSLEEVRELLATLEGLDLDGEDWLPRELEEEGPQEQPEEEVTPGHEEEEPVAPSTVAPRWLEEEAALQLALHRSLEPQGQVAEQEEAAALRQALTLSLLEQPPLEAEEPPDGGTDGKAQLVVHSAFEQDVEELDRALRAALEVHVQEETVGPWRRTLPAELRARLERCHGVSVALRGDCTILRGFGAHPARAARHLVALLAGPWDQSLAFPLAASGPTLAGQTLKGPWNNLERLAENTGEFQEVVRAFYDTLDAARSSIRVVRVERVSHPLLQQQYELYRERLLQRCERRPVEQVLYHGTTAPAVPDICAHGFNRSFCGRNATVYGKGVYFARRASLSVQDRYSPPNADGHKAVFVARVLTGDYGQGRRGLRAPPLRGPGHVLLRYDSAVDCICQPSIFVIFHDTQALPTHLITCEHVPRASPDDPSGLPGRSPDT
In short: (§1)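 Extracted peptides in 3% acetonitrile/0.1% formic acid ran on a 50 cm C18 column into an Orbitrap Fusion, with MaxQuant identification and spectral counting.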

SKIV2L = SKIV2L (human, UniProt Q15477 1-1246)
In short: as §1

URB1 = URB1 (human, UniProt O60287 1-2271)
In short: as §1

PEAK1 = PEAK1 (human, UniProt Q9H792 1-1746)
In short: as §1

USP4 = molecular target: T2, USP4 (human, UniProt Q13107 1-963, limits assumed)
T2 sequence (looked up): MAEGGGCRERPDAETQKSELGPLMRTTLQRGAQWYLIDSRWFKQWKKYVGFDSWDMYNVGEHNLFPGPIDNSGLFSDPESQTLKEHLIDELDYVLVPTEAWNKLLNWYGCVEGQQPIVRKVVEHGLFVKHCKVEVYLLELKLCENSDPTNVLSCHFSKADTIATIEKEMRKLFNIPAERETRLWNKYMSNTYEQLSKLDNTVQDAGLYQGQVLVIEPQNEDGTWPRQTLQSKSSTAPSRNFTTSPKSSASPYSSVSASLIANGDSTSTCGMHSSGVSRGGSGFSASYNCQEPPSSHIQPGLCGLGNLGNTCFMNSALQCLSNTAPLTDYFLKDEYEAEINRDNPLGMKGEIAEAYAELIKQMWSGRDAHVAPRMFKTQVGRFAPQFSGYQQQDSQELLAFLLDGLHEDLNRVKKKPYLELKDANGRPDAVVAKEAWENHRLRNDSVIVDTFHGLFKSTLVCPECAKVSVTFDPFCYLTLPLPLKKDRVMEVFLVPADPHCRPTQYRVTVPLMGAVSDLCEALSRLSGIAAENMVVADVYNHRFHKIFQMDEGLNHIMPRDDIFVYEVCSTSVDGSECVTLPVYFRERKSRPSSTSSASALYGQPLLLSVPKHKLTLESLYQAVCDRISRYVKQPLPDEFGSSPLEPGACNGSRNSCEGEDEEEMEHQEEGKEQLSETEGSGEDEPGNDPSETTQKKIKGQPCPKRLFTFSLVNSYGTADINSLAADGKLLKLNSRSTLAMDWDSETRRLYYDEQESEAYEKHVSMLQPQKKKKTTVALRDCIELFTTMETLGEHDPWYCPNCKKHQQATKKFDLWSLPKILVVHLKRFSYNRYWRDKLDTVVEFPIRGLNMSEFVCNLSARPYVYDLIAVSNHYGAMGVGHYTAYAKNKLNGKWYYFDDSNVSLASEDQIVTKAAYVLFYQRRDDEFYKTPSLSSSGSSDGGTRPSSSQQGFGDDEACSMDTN
In short: as §1

Measured: binding result

PEAK1, sequence (Q9H792 whole entry): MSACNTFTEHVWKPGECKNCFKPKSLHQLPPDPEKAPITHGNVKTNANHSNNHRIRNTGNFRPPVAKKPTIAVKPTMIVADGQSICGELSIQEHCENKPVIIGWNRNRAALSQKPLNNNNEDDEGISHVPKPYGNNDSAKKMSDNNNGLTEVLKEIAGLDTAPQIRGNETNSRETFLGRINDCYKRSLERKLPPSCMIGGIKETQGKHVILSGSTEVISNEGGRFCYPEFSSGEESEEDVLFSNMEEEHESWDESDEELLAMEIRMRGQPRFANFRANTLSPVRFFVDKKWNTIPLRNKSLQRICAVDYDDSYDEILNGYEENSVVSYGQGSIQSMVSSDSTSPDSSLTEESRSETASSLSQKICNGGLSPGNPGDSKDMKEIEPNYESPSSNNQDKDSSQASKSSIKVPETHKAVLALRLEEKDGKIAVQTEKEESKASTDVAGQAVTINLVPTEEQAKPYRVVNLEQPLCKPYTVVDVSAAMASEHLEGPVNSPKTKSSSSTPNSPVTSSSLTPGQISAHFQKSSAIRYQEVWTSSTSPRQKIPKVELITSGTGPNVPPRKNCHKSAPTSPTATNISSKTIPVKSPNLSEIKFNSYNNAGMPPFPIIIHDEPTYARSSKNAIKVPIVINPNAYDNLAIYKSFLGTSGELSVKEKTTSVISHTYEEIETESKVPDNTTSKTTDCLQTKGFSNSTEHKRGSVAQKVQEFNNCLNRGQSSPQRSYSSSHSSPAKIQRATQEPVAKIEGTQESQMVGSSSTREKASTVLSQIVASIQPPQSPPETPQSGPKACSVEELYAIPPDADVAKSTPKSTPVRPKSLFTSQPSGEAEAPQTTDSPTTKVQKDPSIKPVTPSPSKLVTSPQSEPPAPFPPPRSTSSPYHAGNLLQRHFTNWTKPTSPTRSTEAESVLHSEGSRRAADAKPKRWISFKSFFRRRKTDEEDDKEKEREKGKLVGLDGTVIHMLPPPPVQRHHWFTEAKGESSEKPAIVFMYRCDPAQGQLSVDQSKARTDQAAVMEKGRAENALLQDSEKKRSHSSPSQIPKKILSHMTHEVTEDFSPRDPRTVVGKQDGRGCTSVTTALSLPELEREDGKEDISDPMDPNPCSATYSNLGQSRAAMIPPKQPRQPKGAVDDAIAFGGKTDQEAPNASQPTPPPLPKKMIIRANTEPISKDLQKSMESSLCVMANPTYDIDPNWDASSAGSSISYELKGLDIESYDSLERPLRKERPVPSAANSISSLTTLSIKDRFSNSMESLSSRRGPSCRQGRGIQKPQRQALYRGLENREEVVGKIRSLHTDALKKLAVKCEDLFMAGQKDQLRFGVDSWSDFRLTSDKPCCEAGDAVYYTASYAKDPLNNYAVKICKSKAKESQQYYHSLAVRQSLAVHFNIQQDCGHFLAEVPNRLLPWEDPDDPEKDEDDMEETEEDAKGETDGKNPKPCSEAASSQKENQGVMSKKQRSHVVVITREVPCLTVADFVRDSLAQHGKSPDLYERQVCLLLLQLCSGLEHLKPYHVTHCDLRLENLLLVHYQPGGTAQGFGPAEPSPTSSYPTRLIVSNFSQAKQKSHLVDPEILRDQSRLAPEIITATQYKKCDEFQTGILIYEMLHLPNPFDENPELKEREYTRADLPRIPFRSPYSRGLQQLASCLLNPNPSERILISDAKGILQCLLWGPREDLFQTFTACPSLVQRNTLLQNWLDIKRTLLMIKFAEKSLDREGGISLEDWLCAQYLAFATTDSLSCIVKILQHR
SKIV2L, sequence (Q15477 whole entry): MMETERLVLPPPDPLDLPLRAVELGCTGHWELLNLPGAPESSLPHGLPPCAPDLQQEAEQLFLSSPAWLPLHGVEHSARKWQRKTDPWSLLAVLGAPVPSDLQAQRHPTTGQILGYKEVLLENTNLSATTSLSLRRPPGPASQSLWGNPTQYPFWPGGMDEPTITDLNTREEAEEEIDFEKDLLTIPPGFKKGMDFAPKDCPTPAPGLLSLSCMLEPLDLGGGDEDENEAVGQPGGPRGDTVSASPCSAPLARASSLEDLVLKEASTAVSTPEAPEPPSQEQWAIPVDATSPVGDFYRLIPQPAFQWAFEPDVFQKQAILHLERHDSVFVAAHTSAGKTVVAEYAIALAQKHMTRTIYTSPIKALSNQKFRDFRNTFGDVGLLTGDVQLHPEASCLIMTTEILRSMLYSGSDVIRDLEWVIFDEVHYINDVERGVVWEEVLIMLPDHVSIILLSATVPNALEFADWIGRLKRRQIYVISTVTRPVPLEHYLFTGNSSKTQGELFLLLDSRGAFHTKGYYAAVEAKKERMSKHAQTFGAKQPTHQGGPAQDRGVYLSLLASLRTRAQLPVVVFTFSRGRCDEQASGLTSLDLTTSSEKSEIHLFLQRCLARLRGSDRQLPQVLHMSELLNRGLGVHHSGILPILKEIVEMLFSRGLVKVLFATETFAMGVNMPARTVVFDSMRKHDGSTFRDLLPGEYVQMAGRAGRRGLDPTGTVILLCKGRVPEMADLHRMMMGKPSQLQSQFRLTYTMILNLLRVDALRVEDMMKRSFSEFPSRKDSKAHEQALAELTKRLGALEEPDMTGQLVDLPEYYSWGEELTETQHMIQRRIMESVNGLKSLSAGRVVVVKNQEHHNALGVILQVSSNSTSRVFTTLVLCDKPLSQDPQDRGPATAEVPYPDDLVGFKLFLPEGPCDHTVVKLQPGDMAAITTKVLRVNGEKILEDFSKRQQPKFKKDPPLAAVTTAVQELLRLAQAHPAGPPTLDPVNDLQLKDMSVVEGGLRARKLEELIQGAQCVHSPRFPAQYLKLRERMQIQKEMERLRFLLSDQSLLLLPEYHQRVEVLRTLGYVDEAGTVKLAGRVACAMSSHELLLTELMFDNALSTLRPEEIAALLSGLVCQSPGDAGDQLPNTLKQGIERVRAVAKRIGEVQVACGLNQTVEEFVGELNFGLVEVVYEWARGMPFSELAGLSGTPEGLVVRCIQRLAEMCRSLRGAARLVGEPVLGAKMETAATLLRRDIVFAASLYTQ

B1: LZTR1-FLAG (other, human, UniProt Q8N653 1-840, looked up)
chain: MAGPGSTGGQIGAAALAGGARSKVAPSVDFDHSCSDSVEYLTLNFGPFETVHRWRRLPPCDEFVGARRSKHTVVAYKDAIYVFGGDNGKTMLNDLLRFDVKDCSWCRAFTTGTPPAPRYHHSAVVYGSSMFVFGGYTGDIYSNSNLKNKNDLFEYKFATGQWTEWKIEGRLPVARSAHGATVYSDKLWIFAGYDGNARLNDMWTIGLQDRELTCWEEVAQSGEIPPSCCNFPVAVCRDKMFVFSGQSGAKITNNLFQFEFKDKTWTRIPTEHLLRGSPPPPQRRYGHTMVAFDRHLYVFGGAADNTLPNELHCYDVDFQTWEVVQPSSDSEVGGAEVPERACASEEVPTLTYEERVGFKKSRDVFGLDFGTTSAKQPTQPASELPSGRLFHAAAVISDAMYIFGGTVDNNIRSGEMYRFQFSCYPKCTLHEDYGRLWESRQFCDVEFVLGEKEECVQGHVAIVTARSRWLRRKITQARERLAQKLEQEAAPVPREAPGVAAGGARPPLLHVAIREAEARPFEVLMQFLYTDKIKYPRKGHVEDVLLIMDVYKLALSFQLCRLEQLCRQYIEASVDLQNVLVVCESAARLQLSQLKEHCLNFVVKESHFNQVIMMKEFERLSSPLIVEIVRRKQQPPPRTPLDQPVDIGTSLIQDMKAYLEGAGAEFCDITLLLDGHPRPAHKAILAARSSYFEAMFRSFMPEDGQVNISIGEMVPSRQAFESMLRYIYYGEVNMPPEDSLYLFAAPYYYGFYNNRLQAYCKQNLEMNVTVQNVLQILEAADKTQALDMKRHCLHIIVHQFTKVSKLPTLRSLSQQLLLDIIDSLASHISDKQCAELGADI
notes: Expressed in HEK 293T, HeLa or U87 cells; used as cell lysate; also called LZTR1 wild type-FLAG; LZTR1 WT; not shown: FLAG tag at the C-terminus
binds: all assays above
